± gives the uncertainty stated by the source.
Assay: self-splicing fitness, log relative to wild type (ln ratio); higher = more splicing; Tetrahymena group I intron in knt gene, E. coli kanamycin selection, DiMSum; sequences stand for … in CUCUCU…GGAGGGAAAAGUUAUCAGGCAUGCACCUGGUAGCUAGUCUUUAAACCAAUAGAUUGCAUCGGUUUAAAAGGCAAGACCGUCAAAUUGCGGGAAAGGGGUCAACAGCCGUUCAGUACCAAGUCUCAGGGGAAACUUUGAGAUGGCCUUGCAAAGGGUAUGGUAAUAAGCUGACGGACAUGGUCCUAACCACGCAGCCAAGUCCUAAGUCAACAGAUCUUCUGUUGAUAUGGAUGCAGUUCACAGACUAAAUGUCGGUCGGGGAAGAUGUAUUCUUCUCAUAAGAUAUAGUCGGACCUCUCCUUAAUGGGAGCUAGCGGAUGAAGUGAUGCAACACUGGAGCCGCUGGGAACUAAUUUGUAUGCGAAAGUAUAUUGAUUAGUUUUGGAGUACUCGUGGUCG
Procedure, shortened: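 DiMSum derived fitness as the error-weighted combination of fold changes across replicates, kanamycin versus no kanamycin, normalised to wild type. E. coli BL21(DE3) held the library, which randomised all eight P1ex-region intron nucleotides within the knt kanamycin-resistance gene on pET-22b(+). Six replicate transformations grew overnight at 37°C or 30°C on LB agar with or without 25 μg/mL kanamycin, also containing 100 μg/mL carbenicillin, 50 μM IPTG and 0.2% rhamnose, and pooled colonies were amplicon-sequenced on an Illumina HiSeq 2500.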

Sequence	self-splicing fitness (ln) (30 °C)	self-splicing fitness (ln) (37 °C)
AGUCAGCAAUAUUACGCGAC	-2.59 ± 0.26	-3.14 ± 0.35
AGUCAGCAAUAUUACGCGUC	-2.65 ± 0.23	-0.977 ± 0.23
AGUCAGCAAUAUUACGCUGA	-2.55 ± 0.19	-2.24 ± 0.22
AGUCAGCAAUAUUACGGAUC	-0.312 ± 0.11	-0.438 ± 0.2
AGUCAGCAAUAUUACGGAUU	-2.25 ± 0.14	-1.42 ± 0.11
AGUCAGCAAUAUUACGGCUA	-0.605 ± 0.14	-0.512 ± 0.13
AGUCAGCAAUAUUACGGGCC	-2.98 ± 0.28	-2.4 ± 0.35
AGUCAGCAAUAUUACGGGUG	-1.82 ± 0.084	-0.948 ± 0.12
AGUCAGCAAUAUUACGGUCG	0.451 ± 0.089	0.0344 ± 0.12
AGUCAGCAAUAUUACGGUGU	-1.32 ± 0.075	-0.39 ± 0.1
AGUCAGCAAUAUUACGGUUG	-2.76 ± 0.12	-2.8 ± 0.17
AGUCAGCAAUAUUACGGUUU	-0.329 ± 0.065	-0.197 ± 0.08
AGUCAGCAAUAUUACGUGGG	-4.29 ± 0.21	-2.44 ± 0.14
AGUCAGCAAUAUUACGUUAA	-3.47 ± 0.18	-1.77 ± 0.12
AGUCAGCAAUAUUACGUUGU	-3.18 ± 0.12	-2.87 ± 0.18
AGUGAGCAAUAUUACGAACA	-1.77 ± 0.18	-0.734 ± 0.15
AGUGAGCAAUAUUACGAACU	-2.3 ± 0.18	-2.58 ± 0.33
AGUGAGCAAUAUUACGAAUC		-1.49 ± 0.38
AGUGAGCAAUAUUACGACCA	-1.79 ± 0.26	-1.52 ± 0.48
AGUGAGCAAUAUUACGACGA	-2.44 ± 0.21	-1.13 ± 0.24
AGUGAGCAAUAUUACGAGCG	-0.459 ± 0.1	-0.0795 ± 0.13
AGUGAGCAAUAUUACGAGGC	-3.83 ± 0.33	-1.45 ± 0.17

Sequence	self-splicing fitness (ln) (30 °C)	self-splicing fitness (ln) (37 °C)
AGUGAGCAAUAUUACGAUUU	-2.6 ± 0.24	-1.12 ± 0.22
AGUGAGCAAUAUUACGCACG	-1.58 ± 0.18	-0.941 ± 0.17
AGUGAGCAAUAUUACGCGGA	-2.28 ± 0.3	-1.99 ± 0.23
AGUGAGCAAUAUUACGCGGG		-2.1 ± 0.37
AGUGAGCAAUAUUACGCUGC	-2.29 ± 0.46	-2.44 ± 0.44
AGUGAGCAAUAUUACGCUGU	-3.12 ± 0.25	-1.64 ± 0.18
AGUGAGCAAUAUUACGGAUU	-3.48 ± 0.26	-1.28 ± 0.21
AGUGAGCAAUAUUACGGGAC	-4.1 ± 0.47	
AGUGAGCAAUAUUACGGGGA	-3.7 ± 0.25	-2 ± 0.21
AGUGAGCAAUAUUACGGGUC	-3.17 ± 0.28	-3.06 ± 0.43
AGUGAGCAAUAUUACGGUUA	-2.29 ± 0.23	-2.48 ± 0.2
AGUGAGCAAUAUUACGGUUC	-2.21 ± 0.26	-1.7 ± 0.38
AGUGAGCAAUAUUACGUCCC	0.506 ± 0.48	0.283 ± 0.36
AGUGAGCAAUAUUACGUCUA	-2.45 ± 0.27	-1.41 ± 0.2
AGUGAGCAAUAUUACGUCUC		-2.46 ± 0.36
AGUGAGCAAUAUUACGUGAC	-2.02 ± 0.35	-2.39 ± 0.32
AGUUAGCAAUAUUACGACCA	-0.921 ± 0.093	-0.258 ± 0.13
AGUUAGCAAUAUUACGAGCA	-0.518 ± 0.11	-0.169 ± 0.12
AGUUAGCAAUAUUACGAUAA	-2.31 ± 0.21	-0.658 ± 0.22
AGUUAGCAAUAUUACGCACU	-1.6 ± 0.26	-1.09 ± 0.23
AGUUAGCAAUAUUACGCAUG	-1.91 ± 0.078	-1.15 ± 0.1

Reference: the supplement of paper PMC7877785
